{"source": "patent US8541376B2", "about": "“Composition comprising and method of using angiopoietin-like protein 3 ANGPTL3” (Genentech, Inc., priority 2001, dated 2013)", "molecules": {"B1": {"name": "Angptl3: angiopoietin-like protein 3, native human sequence SEQ ID NO: 2; recombinant gD-tagged secreted glycoprotein (protein, listed as Homo sapiens)", "chain": "MFTIKLLLFIVPLVISSRIDQDNSSFDSLSPEPKSRFAMLDDVKILANGLLQLGHGLKDFVHKTKGQINDIFQKLNIFDQSFYDLSLQTSEIKEEEKELRRTTYKLQVKNEEVKNMSLELNSKLESLLEEKILLQQKVKYLEEQLTNLIQNQPETPEHPEVTSLKTFVEKQDNSIKDLLQTVEDQYKQLNQQHSQIKEIENQLRRTSIQEPTEISLSSKPRAPRTTPFLQLNEIRNVKHDGIPAECTTIYNRGEHTSGMYAIRPSNSQVFHVYCDVISGSPWTLIQHRIDGSQNFNETWENYKYGFGRLDGEFWLGLEKIYSIVKQSNYVLRIELEDWKDNKHYIEYSFYLGNHETNYTLHLVAITGNVPNAIPENKDLVFSTWDHKAKGHFNCPEGYSGGWWWHDECGENNLNGKYNKPRAKSKPERRRGLSWKSQNGRLYSIKSTKMLIHPTDSESFE", "modifications": "gD tag", "notes": "recombinant gD-tagged secreted glycoprotein"}, "B2": {"name": "ARP1: angiopoietin related protein 1, unable to bind Tie2, negative control (protein, UniProt O95841 24-491, looked up)", "Angiopoietin-related protein 1": "GQFKIKKINQRRYPRATDGKEEAKKCAYTFLVPEQRITGPICVNTKGQDASTIKDMITRMDLENLKDVLSRQKREIDVLQLVVDVDGNIVNEVKLLRKESRNMNSRVTQLYMQLLHEIIRKRDNSLELSQLENKILNVTTEMLKMATRYRELEVKYASLTDLVNNQSVMITLLEEQCLRIFSRQDTHVSPPLVQVVPQHIPNSQQYTPGLLGGNEIQRDPGYPRDLMPPPDLATSPTKSPFKIPPVTFINEGPFKDCQQAKEAGHSVSGIYMIKPENSNGPMQLWCENSLDPGGWTVIQKRTDGSVNFFRNWENYKKGFGNIDGEYWLGLENIYMLSNQDNYKLLIELEDWSDKKVYAEYSSFRLEPESEFYRLRLGTYQGNAGDSMMWHNGKQFTTLDRDKDMYAGNCAHFHKGGWWYNACAHSNLNGVWYRGGHYRSKHQDGIFWAEYRGGSYSLRAVQMMIKPID"}, "B3": {"name": "Ang1: epitope (gD)-tagged Tie2 ligand angiopoietin 1 (protein, listed as Homo sapiens)", "chain": "RDCADVYQAGFNKSGIYTIYINNMPEPKKVFCNMDVNGGGWTVIQHREDGSLDFQRGWKEYKMGFGNPSGEYWLGNEFIFAITSQRQYMLRIELMDWEGNRAYSQYDRFHIGNEKQNYRLYLKGHTGTAGKQSSLILHGADFSTKDADNDNCMCKCALMLTGGWWFDACGPSNLNGMFYTAGQNHGKLNGIKWHYFKGPSYSLRSTTMMIRPLDF", "modifications": "gD epitope tag"}, "B4": {"name": "murine Angptl3: recombinant mouse Angptl3 overexpressed in CHO cells (protein, UniProt Q9R182 17-455, looked up)", "Angiopoietin-related protein 3": "SRVDPDLSSFDSAPSEPKSRFAMLDDVKILANGLLQLGHGLKDFVHKTKGQINDIFQKLNIFDQSFYDLSLRTNEIKEEEKELRRTTSTLQVKNEEVKNMSVELNSKLESLLEEKTALQHKVRALEEQLTNLILSPAGAQEHPEVTSLKSFVEQQDNSIRELLQSVEEQYKQLSQQHMQIKEIEKQLRKTGIQEPSENSLSSKSRAPRTTPPLQLNETENTEQDDLPADCSAVYNRGEHTSGVYTIKPRNSQGFNVYCDTQSGSPWTLIQHRKDGSQDFNETWENYEKGFGRLDGEFWLGLEKIYAIVQQSNYILRLELQDWKDSKHYVEYSFHLGSHETNYTLHVAEIAGNIPGALPEHTDLMFSTWNHRAKGQLYCPESYSGGWWWNDICGENNLNGKYNKPRTKSRPERRRGIYWRPQSRKLYAIKSSKMMLQPTT"}}, "key": {"HMVEC": {"tested_on": "HMVEC", "experiment": "endothelial cell adhesion assay on Angptl3-coated plates", "format": "cell-based, human", "experimental": "(§1) In order to identify potential integrins binding to Angptl3, recombinant Angptl3 proteins were coated onto 96-well flat-bottomed microtiter plates (MaxiSorp, Nunc, Denmark) overnight at 4° C. and blocked with 100 μg/ml BSA in PBS for 1 hour at 37° C. Various 293 cell lines stably transfected with different integrin heterodimers, including IIbIIIa (αIIBβ3), αvβ3, αvβ1 and αvβ5, were tested for their ability to bind Angptl3 coated plates. Cells were harvested and diluted to 10^5 cells/ml in serum-free CS-C medium containing 1% BSA, 1 mM CaCl2 and 1 mM MgCl2. Cells were preincubated with or without blocking antibodies or peptides for 15 minutes at 37° C. and then stimulated with 200 nM PMA. Cell suspensions (10^4 cells/well) were added to the coated wells and the plates were incubated at 37° C. for selected times. Non-adherent cells were removed by PBS washes and cell attachment was measured using the PNAG method of Lanndegren (Landegren, U., J. Immunol. Methods, 67:379-388 (1984)). Results are expressed at mean OD405 values of triplicate wells.\nTo determine whether the αvβ3 integrin was sufficient to mediate Angptl3 cell adhesion, blocking antibodies or inhibitory peptides were tested for their ability to inhibit the adhesion in the cell adhesion assay. Function blocking antibodies were added to the endothelial cells prior to incubation with the Angptl3-coated wells. […]"}, "[1]": {"tested_on": "Human microvascular endothelial cells (HMVECs)", "experiment": "FACS binding of gD-tagged ligands in conditioned media to endothelial cells", "conditions": "for binding to HMVEC: conditioned media from transfected 293 cells, gD-tagged ligands, FACS", "experimental": "Because of the structural similarities between Angptl3 and angiopoietins, Angptl3 was tested for the ability to bind, in culture, to primary endothelial cells expressing the Tie2 receptor. Human microvascular endothelial cells (HMVECs), purchased from Cell System (Kirkland, Wash.), maintained in CS-C complete medium containing 10% fetal bovine serum and mitogens according to the recommendations by the supplier, were incubated with conditioned media from transiently transfected 293 cells expressing epitope (gD)-tagged versions of Tie2 ligands angiopoietin 1 and 2 (Ang1 and Ang2), Angptl3, and angiopoietin related protein 1 (ARP1), respectively. ARP1 is a structurally related molecule, consisting of a coiled-coil and a fibrinogen-like domain but unable to bind Tie2, and was used as a negative control."}, "Tie2 receptor": {"biological_target": "T1, Tie2 receptor (Homo sapiens, UniProt Q02763)", "T1 construct": "in conjunction with full length receptor constructs for Tie1 and Tie2, respectively; expressed in transfected cells; host or cells: 293 cells (transient transfection)", "T1 sequence (Q02763 23-1124)": "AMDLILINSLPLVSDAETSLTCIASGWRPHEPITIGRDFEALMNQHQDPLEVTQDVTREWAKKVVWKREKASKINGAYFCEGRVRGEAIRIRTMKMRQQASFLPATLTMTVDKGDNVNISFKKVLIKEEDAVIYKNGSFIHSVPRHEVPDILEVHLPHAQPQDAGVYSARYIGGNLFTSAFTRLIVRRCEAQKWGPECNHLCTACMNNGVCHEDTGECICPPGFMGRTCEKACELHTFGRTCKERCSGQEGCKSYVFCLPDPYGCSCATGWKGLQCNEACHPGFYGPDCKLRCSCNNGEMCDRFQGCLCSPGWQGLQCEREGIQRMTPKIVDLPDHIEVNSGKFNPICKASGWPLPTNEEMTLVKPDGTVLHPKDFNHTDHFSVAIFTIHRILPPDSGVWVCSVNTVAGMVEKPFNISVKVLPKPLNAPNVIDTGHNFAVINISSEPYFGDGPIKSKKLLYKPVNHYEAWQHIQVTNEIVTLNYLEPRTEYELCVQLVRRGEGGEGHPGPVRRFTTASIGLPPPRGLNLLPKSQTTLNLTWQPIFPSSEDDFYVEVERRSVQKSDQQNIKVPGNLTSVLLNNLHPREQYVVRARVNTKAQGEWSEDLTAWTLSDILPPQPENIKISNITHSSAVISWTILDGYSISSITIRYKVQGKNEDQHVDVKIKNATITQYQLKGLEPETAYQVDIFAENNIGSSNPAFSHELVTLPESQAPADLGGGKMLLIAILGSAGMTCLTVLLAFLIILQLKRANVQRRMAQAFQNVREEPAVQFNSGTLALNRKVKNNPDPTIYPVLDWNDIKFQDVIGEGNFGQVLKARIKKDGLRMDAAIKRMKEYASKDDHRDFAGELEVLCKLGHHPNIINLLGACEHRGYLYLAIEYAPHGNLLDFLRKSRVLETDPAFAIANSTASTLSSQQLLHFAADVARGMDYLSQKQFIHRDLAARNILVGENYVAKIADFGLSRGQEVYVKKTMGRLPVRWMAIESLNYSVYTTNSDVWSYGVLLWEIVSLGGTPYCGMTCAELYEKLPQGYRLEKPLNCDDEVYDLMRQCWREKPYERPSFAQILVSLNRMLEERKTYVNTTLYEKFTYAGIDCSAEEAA", "experiment": "co-immunoprecipitation in cotransfected 293 cells", "format": "binding", "conditions": "immunoprecipitation with anti-Tie2, anti-gD blot", "experimental": "(§2) To test whether Tie2, the receptor for angiopoetins 1, 2 and 3 (Ang1, Ang2, and Ang3), or Tie1, an orphan receptor with high sequence homology to Tie2, bind to Angptl3, immunoprecipitation experiments were conducted using 293 cells transiently with expression vectors for epitope (gD)-tagged versions of Ang1 and Ang2, Angptl3 and ARP1 in conjunction with full length receptor constructs for Tie1 and Tie2, respectively. Whole cell extracts were prepared by lysis in RIPA buffer (1×PBS; 1% NP40; 0.5% sodium deoxycholate; 0.1% SDS; PMSF, 100 μg/ml; Aprotinin, 30 μl/ml; sodium orthovanadate, 1 μM) containing freshly added protease inhibitors. Extract was incubated with antibodies specific for Tie1 or Tie2 (Santa Cruz Biotechnology, San Diego, Calif.) and the resulting immunoprecipitate was analyzed by SDS-PAGE and immunoblotting. Specifically, proteins resolved by SDS-PAGE and blotted to PVDF membrane were incubated with antibodies against the gD tag or the Tie receptors, respectively."}, "Tie1 receptor": {"biological_target": "T2, Tie1 receptor (Homo sapiens, UniProt P35590)", "T2 construct": "in conjunction with full length receptor constructs for Tie1 and Tie2, respectively; expressed in transfected cells; host or cells: 293 cells (transient transfection)", "experiment": "co-immunoprecipitation in cotransfected 293 cells", "format": "binding", "conditions": "immunoprecipitation with anti-Tie1, anti-gD blot", "experimental": "as §2"}, "αvβ3 integrin": {"biological_target": "T3, αvβ3 integrin (Homo sapiens, UniProt P05106+P06756)", "T3 construct": "expressed in transfected cells", "T3 sequence (P06756 31-889 limits assumed)": "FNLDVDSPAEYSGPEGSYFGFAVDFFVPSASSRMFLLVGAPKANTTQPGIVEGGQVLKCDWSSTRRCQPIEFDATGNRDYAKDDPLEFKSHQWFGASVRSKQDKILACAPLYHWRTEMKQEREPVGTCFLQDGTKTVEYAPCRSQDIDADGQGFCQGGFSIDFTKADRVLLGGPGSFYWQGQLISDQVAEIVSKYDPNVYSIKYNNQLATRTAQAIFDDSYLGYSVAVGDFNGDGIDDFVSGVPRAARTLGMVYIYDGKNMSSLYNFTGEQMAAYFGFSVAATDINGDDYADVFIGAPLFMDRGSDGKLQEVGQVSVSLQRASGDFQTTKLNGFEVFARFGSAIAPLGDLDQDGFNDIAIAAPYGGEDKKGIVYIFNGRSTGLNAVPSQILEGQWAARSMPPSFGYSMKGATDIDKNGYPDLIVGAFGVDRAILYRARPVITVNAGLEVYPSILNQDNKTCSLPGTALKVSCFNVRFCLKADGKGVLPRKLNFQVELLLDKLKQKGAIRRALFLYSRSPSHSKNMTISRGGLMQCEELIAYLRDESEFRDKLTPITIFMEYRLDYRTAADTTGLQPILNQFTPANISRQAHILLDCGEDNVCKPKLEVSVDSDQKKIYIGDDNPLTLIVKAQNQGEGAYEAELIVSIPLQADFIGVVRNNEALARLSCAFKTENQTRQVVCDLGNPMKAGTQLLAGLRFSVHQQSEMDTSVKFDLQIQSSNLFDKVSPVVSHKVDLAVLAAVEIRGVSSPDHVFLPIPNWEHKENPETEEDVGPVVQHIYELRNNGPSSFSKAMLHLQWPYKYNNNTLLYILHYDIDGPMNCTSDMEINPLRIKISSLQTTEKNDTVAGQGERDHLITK", "T3 sequence (P06756 891-1048 limits assumed)": "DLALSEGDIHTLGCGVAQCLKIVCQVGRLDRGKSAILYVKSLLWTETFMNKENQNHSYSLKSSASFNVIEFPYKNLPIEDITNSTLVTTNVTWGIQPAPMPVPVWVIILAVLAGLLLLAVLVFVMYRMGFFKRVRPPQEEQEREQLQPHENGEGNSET", "T3 sequence (P05106 27-788)": "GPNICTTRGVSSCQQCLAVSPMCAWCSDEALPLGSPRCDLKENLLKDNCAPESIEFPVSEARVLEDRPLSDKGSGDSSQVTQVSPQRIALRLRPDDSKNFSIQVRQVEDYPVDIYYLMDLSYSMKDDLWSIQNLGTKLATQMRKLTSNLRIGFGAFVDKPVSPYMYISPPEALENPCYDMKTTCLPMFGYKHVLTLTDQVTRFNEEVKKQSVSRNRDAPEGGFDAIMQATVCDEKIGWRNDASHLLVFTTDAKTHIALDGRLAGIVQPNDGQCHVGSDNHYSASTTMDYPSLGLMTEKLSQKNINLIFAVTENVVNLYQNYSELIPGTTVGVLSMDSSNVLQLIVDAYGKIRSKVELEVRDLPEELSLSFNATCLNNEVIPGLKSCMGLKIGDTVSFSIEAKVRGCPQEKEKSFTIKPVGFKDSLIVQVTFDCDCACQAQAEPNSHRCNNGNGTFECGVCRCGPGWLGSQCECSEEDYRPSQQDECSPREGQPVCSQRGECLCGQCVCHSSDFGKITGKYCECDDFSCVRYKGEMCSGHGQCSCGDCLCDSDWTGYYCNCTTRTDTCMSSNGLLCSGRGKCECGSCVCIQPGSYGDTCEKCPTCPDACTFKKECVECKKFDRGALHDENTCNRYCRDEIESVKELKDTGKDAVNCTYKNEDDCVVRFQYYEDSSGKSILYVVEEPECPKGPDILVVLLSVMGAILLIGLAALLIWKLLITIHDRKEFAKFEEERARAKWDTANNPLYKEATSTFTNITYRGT", "experiment": "adhesion of integrin-transfected 293 cell lines to Angptl3-coated plates", "format": "cell-based", "conditions": "plates coated with 20 μg/ml hAngptl3, 4 hours; compared to cell lines expressing αIIbβ3, αvβ1, αvβ5", "experimental": "as §1"}, "rat cornea": {"tested_on": "rat cornea", "experiment": "rat cornea in vivo angiogenesis assay", "conditions": "for angiogenic response compared to levels obtained for VEGF: Angptl3 500 ng vs VEGF 100 ng", "experimental": "In order to test whether Angptl3 was capable to induce an in vivo angiogenic response in the rat cornea, […] pellets containing murine and human Angptl3 (500 ng) as well as human VEGF (100 ng) were implanted separately or in combination as described previously (Xin et al., J. Biol. Chem., 274:[…] (1999)). Hydron pellets containing excipient (control, murine or human Angptl3 (500 ng), VEGF (100 ng), or the combination of murine or human Angptl3 (500 ng) and VEGF (100 ng) were implanted into the corneas of 250 to 300 g male Sprague-Dawley rates. All hydron pellets contained 100 ng of sucralfate. […] Corneal whole mounts were made of the enucleated eyes and analyzed for neovascular areas using a computer-assisted image analysis (Image Pro-Plus 2.0, Silver Spring, Md.). In contrast to previous reports focusing on the effects of angiopoietin 1 and 2 when tested in the corneal angiogenesis assay (Asahara et al., Circ. […] These findings might reflect the interdependent signal transduction pathways engaged by both ligands (Byzova et al., Mol. Cell. 6:852-60 (2000))."}, "[2]": {"tested_on": "freshly isolated murine hepatocytes", "experiment": "cell adhesion on protein-coated plates, hepatocytes", "format": "cell-based, mouse", "conditions": "dishes coated with recombinant mAngptl3 (FIG. 13 legend), 200 nM PMA", "experimental": "96-well flat-bottomed plates (MaxiSorp, Nunc, Denmark) were coated overnight at 4° C. with the indicated concentrations of proteins and blocked with 3% BSA in PBS for 1 hour at 37° C. Primary human dermal endothelial cells (HMVECs) and freshly isolated murine hepatocytes that were prepared from the livers of adult C57/B16 mice using the method described in LeCouter et al (LeCouter et al., 2001) were harvested and diluted to 10^5 cells/ml in serum-free CS-C medium containing 1% BSA, 1 mM CaCl2 and 1 mM MgCl2 in the presence of 200 nM PMA. […] Cell suspensions (10^4 cells/well) were added to the coated wells and the plates were incubated at 37° C. for selected times. Non-adherent cells were removed by PBS washes and cell attachment was measured using the PNAG method of Landegren (Landegren, 1984). Results were expressed at mean OD405 values of triplicate wells."}, "LFA1": {"biological_target": "LFA1 (Homo sapiens, UniProt P05107+P20701)", "sequence (P20701 26-1170)": "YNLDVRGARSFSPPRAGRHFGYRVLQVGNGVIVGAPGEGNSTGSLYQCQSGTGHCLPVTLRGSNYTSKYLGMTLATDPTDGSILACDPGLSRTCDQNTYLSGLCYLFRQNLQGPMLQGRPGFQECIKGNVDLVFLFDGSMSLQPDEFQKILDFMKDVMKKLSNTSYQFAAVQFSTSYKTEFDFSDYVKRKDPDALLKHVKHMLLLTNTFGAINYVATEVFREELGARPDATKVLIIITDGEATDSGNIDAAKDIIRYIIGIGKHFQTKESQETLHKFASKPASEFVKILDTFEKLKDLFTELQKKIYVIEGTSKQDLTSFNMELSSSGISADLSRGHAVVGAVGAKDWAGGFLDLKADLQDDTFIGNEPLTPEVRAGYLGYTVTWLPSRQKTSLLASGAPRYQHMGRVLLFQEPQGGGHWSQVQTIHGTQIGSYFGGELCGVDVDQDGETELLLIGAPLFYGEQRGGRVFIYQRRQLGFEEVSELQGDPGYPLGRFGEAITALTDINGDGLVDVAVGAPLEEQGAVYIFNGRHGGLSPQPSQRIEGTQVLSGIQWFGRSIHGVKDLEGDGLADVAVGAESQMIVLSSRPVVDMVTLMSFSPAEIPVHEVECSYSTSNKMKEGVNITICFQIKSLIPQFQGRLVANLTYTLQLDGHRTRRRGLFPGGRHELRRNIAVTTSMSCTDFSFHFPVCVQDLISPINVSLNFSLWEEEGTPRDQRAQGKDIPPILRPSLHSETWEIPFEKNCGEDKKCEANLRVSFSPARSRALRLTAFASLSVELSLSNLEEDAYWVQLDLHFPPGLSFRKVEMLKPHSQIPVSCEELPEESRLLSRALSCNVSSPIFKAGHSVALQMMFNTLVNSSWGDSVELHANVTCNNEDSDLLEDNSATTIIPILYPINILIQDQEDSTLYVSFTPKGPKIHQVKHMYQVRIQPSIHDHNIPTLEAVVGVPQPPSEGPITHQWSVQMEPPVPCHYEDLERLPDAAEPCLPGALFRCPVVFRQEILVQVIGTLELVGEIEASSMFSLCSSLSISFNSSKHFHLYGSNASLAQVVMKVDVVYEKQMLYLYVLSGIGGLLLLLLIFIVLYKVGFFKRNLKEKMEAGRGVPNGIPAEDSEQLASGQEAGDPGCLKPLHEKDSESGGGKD", "sequence (P05107 23-769)": "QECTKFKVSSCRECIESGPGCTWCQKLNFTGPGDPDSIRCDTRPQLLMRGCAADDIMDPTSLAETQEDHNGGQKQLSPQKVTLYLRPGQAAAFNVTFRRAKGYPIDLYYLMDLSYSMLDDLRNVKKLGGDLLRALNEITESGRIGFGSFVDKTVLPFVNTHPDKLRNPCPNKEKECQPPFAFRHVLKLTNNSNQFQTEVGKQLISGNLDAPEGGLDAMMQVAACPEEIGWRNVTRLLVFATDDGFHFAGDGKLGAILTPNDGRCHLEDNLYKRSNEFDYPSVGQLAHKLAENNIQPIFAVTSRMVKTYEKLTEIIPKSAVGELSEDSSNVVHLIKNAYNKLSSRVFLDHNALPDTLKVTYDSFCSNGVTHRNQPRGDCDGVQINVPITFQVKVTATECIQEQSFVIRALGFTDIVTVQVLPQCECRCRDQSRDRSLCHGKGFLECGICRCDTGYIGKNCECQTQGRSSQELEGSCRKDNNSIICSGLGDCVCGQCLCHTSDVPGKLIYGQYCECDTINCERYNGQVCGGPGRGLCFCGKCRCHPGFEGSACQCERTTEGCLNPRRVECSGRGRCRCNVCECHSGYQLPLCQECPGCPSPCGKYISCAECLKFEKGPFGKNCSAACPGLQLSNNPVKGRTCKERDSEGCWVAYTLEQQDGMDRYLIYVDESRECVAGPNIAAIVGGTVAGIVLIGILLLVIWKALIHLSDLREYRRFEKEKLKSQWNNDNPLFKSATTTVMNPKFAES", "conditions": "ELISA in vitro (Camenisch et al., 2002); cited from earlier work"}, "Mac-1": {"biological_target": "Mac-1 (Homo sapiens, UniProt P05107+P11215)", "sequence (P05107 23-769, other chains not shown)": "as the sequence (P05107 23-769) above", "conditions": "ELISA in vitro (Camenisch et al., 2002); cited from earlier work"}}}
{"molecule": "O=C(O)CN(CCN(CC(=O)O)CC(=O)O)CC(=O)O", "note": "[EDTA, reference compound]", "values": [{"measurement": "effect of EDTA on endothelial cell adhesion to Angptl3", "setting": "HMVEC; EDTA 10 mM", "value": "completely abolished"}]}
{"molecule": "Ang2: epitope (gD)-tagged Tie2 ligand angiopoietin 2 [reference compound]", "values": [{"measurement": "binding to HMVEC", "setting": "[1]", "value": "strongly bound"}, {"measurement": "binding to Tie2", "setting": "Tie2 receptor", "value": "Tie2 binding"}]}
{"molecule": "B1", "values": [{"measurement": "binding to HMVEC after exposure of cells to hypoxia or VEGF", "setting": "[1]; cells exposed to hypoxia or VEGF, data not shown", "value": "significantly increased"}, {"measurement": "binding to HMVEC", "setting": "[1]", "value": "strongly bound"}, {"measurement": "binding to Tie1", "setting": "Tie1 receptor", "value": "did not bind"}, {"measurement": "binding to Tie2", "setting": "Tie2 receptor", "value": "did not bind"}, {"measurement": "induction of endothelial cell adhesion", "setting": "HMVEC; increasing coating amounts of hAngptl3, within 4 hours", "value": "robust, dose-dependent adhesion"}, {"measurement": "adherence of 293 cells expressing αvβ3 to Angptl3", "setting": "αvβ3 integrin", "value": "marked increased"}, {"measurement": "in vivo angiogenic response in rat cornea", "setting": "rat cornea; 500 ng in hydron pellet, alone, 5 days after pellet implantation", "value": "strong angiogenic response"}, {"measurement": "angiogenic response compared to levels obtained for VEGF", "setting": "rat cornea", "value": "comparable"}, {"measurement": "hepatocyte adhesion", "setting": "[2]", "value": "Coating-concentration dependent"}, {"measurement": "binding to LFA1", "setting": "LFA1", "value": "did not bind"}, {"measurement": "binding to Mac-1", "setting": "Mac-1", "value": "did not bind"}]}
{"molecule": "B2", "values": [{"measurement": "binding to HMVEC", "setting": "[1]", "value": "no binding was observed"}]}
{"molecule": "B3", "values": [{"measurement": "binding to Tie2", "setting": "Tie2 receptor", "value": "Tie2 binding"}]}
{"molecule": "B4", "values": [{"measurement": "potency in inducing angiogenesis compared to the recombinant human protein", "setting": "rat cornea; 500 ng each", "value": "slightly more potent"}, {"measurement": "angiogenic response compared to levels obtained for VEGF", "setting": "rat cornea", "value": "comparable"}]}
